Experimental data from PMC8965487.

Target: Cy5-labeled extracellular domain of human Angiotensin-Converting Enzyme 2 (ACE2) (UniProt Q9BYF1)
Settings: parent: est. 0; read off a plot

Substance: SARS-CoV-2 wild-type Spike S1 A222V; D614G
- other: Log2 EC50 (WT/MT): -0.1

Substance: SARS-CoV-2 wild-type Spike S1 D614G
- other: Log2 EC50 (WT/MT): -0.05

Substance: SARS-CoV-2 wild-type Spike S1 HV69-70 del; N501Y; D614G
- other: Log2 EC50 (WT/MT): -0.05

Substance: SARS-CoV-2 wild-type Spike S1 L18F; D614G
- other: Log2 EC50 (WT/MT): 0.35

Substance: SARS-CoV-2 wild-type Spike S1 N234Q
- other: Log2 EC50 (WT/MT): -0.05

Substance: SARS-CoV-2 wild-type Spike S1 T20N; D614G
- other: Log2 EC50 (WT/MT): 0.2

Substance: SARS-CoV-2 wild-type Spike S1+S2 D614G
- other: Log2 EC50 (WT/MT): 0.45
